Assay: yeast display, Sf9 membrane polyspecificity reagent, FACS + sequencing; frameworks hold sequencing errors
In short: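 Synthetic nanobody libraries on Saccharomyces cerevisiae BJ5465 were galactose-induced for 36–48 hours, stained 1 hour at 4 °C with 10% biotinylated, detergent-solubilized Sf9 membrane reagent and enriched on streptavidin microbeads. FACS then separated cells into low and high (top ~1%) gates by anti-HA (expression) and streptavidin (reagent binding) fluorescence. Genes were colony-PCR amplified, MiSeq 2 × 250 sequenced and CDR-length filtered. A clone's polyreactivity label is that of its gate of origin.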
With “QVQLVESGGGLVQAGGSLRLSCAASGSIFNANAMGWYRQAPGKERELVAGIRSGSSTNYADSVKGRFTISRDNAKNTVYFQMNSLKPEDTAVYYCATEGYWVYGFDDEDWGQGTQVTVSS” the “polyreactivity (PSR sort gate)” value was “low polyreactivity”.
With “QVQLVESGGGLVQAGGSLRLSCAASGSIFNGNARGWYRQAPGKERELVAAITRRGGRTYYADSVKGRFTISRDNEKNTVYLQMNSLQPEDTAFYYCATPVDYKTGYYYWVQGTQVTVSS” the “polyreactivity (PSR sort gate)” value was “high polyreactivity”.
In the case of “QVQLVESGGGLVQAGGSLRLSCAASGSIFNGYAMGWYRQSPGKERELVAVISGSGGSTYYADSVKGRFTISRDNAKNTVYLQMNSLKPEDTAVYYCAAKPGYYGYWGQGTQVTVSS”, the “polyreactivity (PSR sort gate)” value is reported as “high polyreactivity”.
In the case of “QVQLVESGGGLVQAGGSLRLSCAASGSIFNINAMGWYRQAPGKERELVAAITTSGGRTYYADSVKGRFTISRDNAKNTVYLQMNSLKPEVTAVYYCATSHYGSTGNYWGQGTQVTVSS”, the “polyreactivity (PSR sort gate)” value is reported as “low polyreactivity”.
For “QVQLVESGGGLVQAGGSLRLSCAASGSIFNINAMGWYRQAPGKESELVATITSGGTTSYADSVKGRFTISRDNAKNTVYLQMNSLKPEDTAVYYCNAEIYPIVKAGLQHPRRYDYWGQGTQVTVSS”, the “polyreactivity (PSR sort gate)” value was “low polyreactivity”.
For “QVQLVESGGGLVQAGGSLRLSCAASGSIFNIYAMGLYRQAPGKERELVATITGIADSTYYADSVKGRFTISRDNAKNTVYLQMNSLKPEDTAVYYCAADKYVAEYDYWGQGTQVTVSS”, the “polyreactivity (PSR sort gate)” value was “low polyreactivity”.
In the case of “QVQLVESGGGLVQAGGSLRLSCAASGSIFNIYAMGWYRQAPGKERELVAAIRWTGGSTYYADSVKGRFTISRDNAKNTVYLQMHSLKPEDTALYYSAARTSRGGHYYWGHGTQVTVSS”, the “polyreactivity (PSR sort gate)” value is reported as “high polyreactivity”.
For “QVQLVESGGGLVQAGGSLRLSCAASGSIFNLYAMGWYRQAPGKERELVAGIRWSGGRTYYADSVKGRFTISRDNAKNTVYLQMNSLKPEDTAVYYCNAVGYLSWWNDYDYWGQGTQVTVSS”, the “polyreactivity (PSR sort gate)” value was “high polyreactivity”.
With “QVQLVESGGGLVQAGGSLRLSCAASGSIFNPYVMGWYRQAPGKERELVAAISSSGGRTYYADSVKGRFTISRDNAKNTVYLQMNSLKPEDTAVYYCAAIPRQGYDYWGQGTQVTVSS” the “polyreactivity (PSR sort gate)” value was “high polyreactivity”.
In the case of “QVQLVESGGGLVQAGGSLRLSCAASGSIFNRYAMGWYRQAPGKERELVAAITWNGGSTYYADSVKGRFTISRDNAKNTVYLQMNSLKPEDTAVYYCNKASLRGSYARYSYDYWGQGTQVTVSS”, the “polyreactivity (PSR sort gate)” value is reported as “high polyreactivity”.
With “QVQLVESGGGLVQAGGSLRLSCAASGSIFNTYAMGWYRQAPGKERELVAAISRSGDSTYYADSVKGRFTISRDNAKNTVYLQMNSLKPEDSAVYYCATGRTDHGYYYWGQGTQVTVSS” the “polyreactivity (PSR sort gate)” value was “high polyreactivity”.
With “QVQLVESGGGLVQAGGSLRLSCAASGSIFNWNTMGWYRQAPGKERELVAAITYDGGTTYYADSVKGRFTISRDNAKNTVYLQMNSLKPEDTAVYYCAAEFLYKYGRYDYWGQGTQVTVSS” the “polyreactivity (PSR sort gate)” value was “high polyreactivity”.
For “QVQLVESGGGLVQAGGSLRLSCAASGSIFNWNTMGWYRQAPGKERELVAAITYDGGTTYYADSVKGRFTISRDYAKNNVYLQMISLKPEDTAVYYCAAEFLYKYGRYDYWGQGTQVTVSS”, the “polyreactivity (PSR sort gate)” value was “high polyreactivity”.
In the case of “QVQLVESGGGLVQAGGSLRLSCAASGSIFNYNDMGWYRQAPGKERELVAAIDSSGTSTYYADSVKGRFTISRDNAKNTVYLQMNSLKPEDTAVYYCNADSSLGFGYWGQGTLVTVSS”, the “polyreactivity (PSR sort gate)” value is reported as “low polyreactivity”.
In the case of “QVQLVESGGGLVQAGGSLRLSCAASGSIFNYNDMGWYRQAPGKERELVAAIDSSGTSTYYADSVKGRFTISRDNAKNTVYLQMTSLKPEDTAVYYCNADYRGWGYHMDYWGQGTQVTVSS”, the “polyreactivity (PSR sort gate)” value is reported as “low polyreactivity”.
In the case of “QVQLVESGGGLVQAGGSLRLSCAASGSIFNYNTMGWYRQAPGKERELVADISWSGGSTYYADSVKGRFTISRDNAKNTVYLQMNSLKPEDTAVYYCAADFGLFPYVGTGYYYWGQGTQVTVSS”, the “polyreactivity (PSR sort gate)” value is reported as “low polyreactivity”.
For “QVQLVESGGGLVQAGGSLRLSCAASGSIFNYYAMGWYRQAPGKERDLVAAITTSGGNTYYADSVKGRFTISRDNAKNTVYLLMYSLKPEDTAVYYCAADYWASGGEYDYWGQGTQVSVSS”, the “polyreactivity (PSR sort gate)” value was “low polyreactivity”.
For “QVQLVESGGGLVQAGGSLRLSCAASGSIFPANAMGWYRQAPGKERELVAAISRRGGNTNYADSVKGRFTISRDNAKNTVYLQMNSLKPEDTAVYYCAAYYYYRRYDYWGQGTQVTVSS”, the “polyreactivity (PSR sort gate)” value was “high polyreactivity”.
For “QVQLVESGGGLVQAGGSLRLSCAASGSIFPANAMGWYRQAPGKEWEFVAAINWSTGTTYYADSVKGRFTIARDNAKNTVYLQMNRLKPEETPVYYCNASDQAKYDYWGQGTQVTVSS”, the “polyreactivity (PSR sort gate)” value was “low polyreactivity”.
In the case of “QVQLVESGGGLVQAGGSLRLSCAASGSIFPANAMGWYRQPPGKERELVAAISRRGGNTYYADSVKGRFTISRDNAKNTVYLQMNSLKPEDTAVYYCAAYYFYRRYDYWGQGTQVTVSS”, the “polyreactivity (PSR sort gate)” value is reported as “high polyreactivity”.
In the case of “QVQLVESGGGLVQAGGSLRLSCAASGSIFPAYAMGWYRQAPGKERELVASITGSGGSTYYADSVKGRFTISRDNAKNTVYLQMNSLKPEDTAVYYCNARYYVYSATVDRYYHFYYWGQGTQVTVSS”, the “polyreactivity (PSR sort gate)” value is reported as “high polyreactivity”.
With “QVQLVESGGGLVQAGGSLRLSCAASGSIFPAYTMGWYRQAPGKERELVAAIPYSGARSTYYADSVKGRVTNSRDNAKNTVYLQMNSLKPEDTAVYYCNARDRARYFYDMDYWGQGTQVTVSS” the “polyreactivity (PSR sort gate)” value was “low polyreactivity”.
With “QVQLVESGGGLVQAGGSLRLSCAASGSIFPENAMGWYRQAPGKERELVAAITSSDSSTYYADSVKGRFTISRDNAKNTVYLHMNSLKPEDTAVYSCAAYRVGFRFREYYWGQGTQVTVSS” the “polyreactivity (PSR sort gate)” value was “low polyreactivity”.
In the case of “QVQLVESGGGLVQAGGSLRLSCAASGSIFPENAMGWYRQAPGKERELVAAITSSDSSTYYADSVKGRFTISRDNAKNTVYLQMNSLKPEDTAVYYCAAYRVGFRFREYYWGQGTQVTVSS”, the “polyreactivity (PSR sort gate)” value is reported as “low polyreactivity”.
For “QVQLVESGGGLVQAGGSLRLSCAASGSIFPFNAMGCYRQAPGKERELVAAISYSGGSTYYADSVKGRFTISRDNAKNTVYLQMTRLKPEDTAVYYCNRLLRRHLYIFYYWGQGTLVTVSS”, the “polyreactivity (PSR sort gate)” value was “high polyreactivity”.
With “QVQLVESGGGLVQAGGSLRLSCAASGSIFPFNAMGWYRQAPGKERELVAAISRRGTGTYYADSVKGRFTISRDNAKNTVYLQMNSLKPEDTAVYYCNAVVRAGHYDYWGQGTQVTLSS” the “polyreactivity (PSR sort gate)” value was “high polyreactivity”.
With “QVQLVESGGGLVQAGGSLRLSCAASGSIFPFYAMGWFRQAPGKERELVAAISWSGGSTYYADSVKGRFTISRDNAKNTVYLQMNSLKPEDTAVYYCNRADGYSFSLNRSDYWGQGTQVTVSS” the “polyreactivity (PSR sort gate)” value was “low polyreactivity”.
With “QVQLVESGGGLVQAGGSLRLSCAASGSIFPFYAMGWYRQAPGKERELVATISWSGGRTYYADSVKGRFTISRDNAKYTVDLQMNTLKPEDTAVYYCAAGSYHYPNAYYYWGQGTQVTVSS” the “polyreactivity (PSR sort gate)” value was “high polyreactivity”.
For “QVQLVESGGGLVQAGGSLRLSCAASGSIFPGYAMAWYRQAPGKERELVAAISRSGGITYYADSVKGRFTISRDNAKNTVYLQMNSLKPEDTSVYYCAKTLPSNGHYDYWGQGTQVTVSS”, the “polyreactivity (PSR sort gate)” value was “low polyreactivity”.
In the case of “QVQLVESGGGLVQAGGSLRLSCAASGSIFPGYAMGWYRQAPGKERELVAAIDRSGGSTYYADSVKGRFTISRDNAKNTVYLQMNSLKPEDTAVYYCNRVFTWRYGYRYEYWGQGTQVTVSS”, the “polyreactivity (PSR sort gate)” value is reported as “high polyreactivity”.
With “QVQLVESGGGLVQAGGSLRLSCAASGSIFPGYAMGWYRQAPGKERELVATITWSGGSTYYADSVKGRFTISRDNAKNTVYLQMISLKTEDTAVYYCNADSNCYYQWNYYGLYDYWGQGTQVTVSS” the “polyreactivity (PSR sort gate)” value was “low polyreactivity”.
For “QVQLVESGGGLVQAGGSLRLSCAASGSIFPGYAMGWYRQAPGKERELVATITWSGGSTYYADSVKGRFTISRDNAKNTVYLQMNSLIPEDTAVYYCNADSNWYYQWNYYGLYDYWGQGTQVTVSS”, the “polyreactivity (PSR sort gate)” value was “low polyreactivity”.
In the case of “QVQLVESGGGLVQAGGSLRLSCAASGSIFPGYAMGWYRQAPGKERELVATITYSDGSTYYADSVKGRFTISRDNAKNTVYLQMNSLKPEDTAVYYCAVTYWWYYGYDYWGQGTQVTVSS”, the “polyreactivity (PSR sort gate)” value is reported as “low polyreactivity”.
With “QVQLVESGGGLVQAGGSLRLSCAASGSIFPGYSMGWCRQAPGKERELVAAISISGGDTYYADSVKGRFTISRDNAKNTGYFQMNSLKPEDTSVYHCNKEDDDREWFEYYWWYDYWGQGTQVTVTS” the “polyreactivity (PSR sort gate)” value was “high polyreactivity”.
In the case of “QVQLVESGGGLVQAGGSLRLSCAASGSIFPGYVMGWYRQAPGTERELVAAISWSGGSTYYADSVKGRFTISRDNAMNTVYLQLNSLKPEDTAVYYWAADYSYYHGPSRHKHDYWGQGTQVTVSS”, the “polyreactivity (PSR sort gate)” value is reported as “low polyreactivity”.
With “QVQLVESGGGLVQAGGSLRLSCAASGSIFPIYAMGWYRQAPGKERELVAAINRSGGSTYYADSVKGRFTISRDNAKNTVYLQMNSLKPEDTAVYYCNADYGYHNQLFWGYYGWSSDHWGQGTQVTVSS” the “polyreactivity (PSR sort gate)” value was “low polyreactivity”.
For “QVQLVESGGGLVQAGGSLRLSCAASGSIFPIYAMGWYRQAPGKERELVAAITRSDGSTYYADSVKGRFTISRDNAKNTVYLQMNSLNPEDTAVYYCGDYGYWGQGTQVTVSS”, the “polyreactivity (PSR sort gate)” value was “low polyreactivity”.
With “QVQLVESGGGLVQAGGSLRLSCAASGSIFPIYAWGWYRQAPGKERELVAAISGSGARTYYSDSVKGRFTISRDNAKNTVYLQMNSLKPEDTAVYYCNAKYGYDSEARIVKPVRYDYWGQGTQVTVSS” the “polyreactivity (PSR sort gate)” value was “high polyreactivity”.
In the case of “QVQLVESGGGLVQAGGSLRLSCAASGSIFPIYTMGWYRQAPGKERELVAAITYNAGSTYYADSVKGRFTISRDNAKNTVYLQMNSLKPEDTAVYYCAADRYYDRTFPGYDYWGQGTQVTVSS”, the “polyreactivity (PSR sort gate)” value is reported as “low polyreactivity”.
With “QVQLVESGGGLVQAGGSLRLSCAASGSIFPKYAMGWYRQAPGKERELVAAISRGGGSTYYADSVKGRFTISRDNAKNTVYLQMNSLKPEDTAVYYCAALFTPALSEYDYWGQGTQVTVSS” the “polyreactivity (PSR sort gate)” value was “high polyreactivity”.
For “QVQLVESGGGLVQAGGSLRLSCAASGSIFPLNAMGWYRQSPGKERELVATISWRGGITYYADSVKGRFTISRDNAKNTVYLQMNSLKPEDTAVYYCATVGRWNSLWYRYRYDYWGQGTQVTVSS”, the “polyreactivity (PSR sort gate)” value was “low polyreactivity”.

Source: the nanobody polyreactivity screen of Harvey et al. (2022)
